From patent US10640547B2, “Immunotherapy against melanoma and other cancers” (IMMATICS BIOTECHNOLOGIES GMBH, priority 2016, dated 2020) come the findings set out here.

The assay addresses HLA-A*02:01 (Homo sapiens, UniProt P04439, D140Y/D185E/D98H/E176V/E277Q/G131W/G231S/I119V/I121R/I166T/I218V/L300P/L318F/N151K/N90K/P208A/P217A/Q86G/Q94H/R138H/R169H/T345S). The assay is described as follows: MHC binding assay (UV-ligand exchange, β2m ELISA). The conditions noted are these: MHC class I binding score; binding to HLA-A*02:01 ranged by peptide exchange yield (UV-ligand exchange, β2m ELISA). The text has this: Candidate peptides for T cell based therapies according to the present invention were further tested for their MHC binding capacity (affinity). The individual peptide-MHC complexes were produced by UV-ligand exchange, where a UV-sensitive peptide is cleaved upon UV-irradiation, and exchanged with the peptide of interest as analyzed. Only peptide candidates that can effectively bind and stabilize the peptide-receptive MHC molecules prevent dissociation of the MHC complexes. To determine the yield of the exchange reaction, an ELISA was performed based on the detection of the light chain (β2m) of stabilized MHC complexes. The assay was performed as generally described in Rodenko et al. (Rodenko et al., 2006).
96 well MAXISorp plates (NUNC) were coated over night with 2 ug/ml streptavidin in PBS at room temperature, washed 4× and blocked for 1 h at 37° C. in 2% BSA containing blocking buffer. Refolded HLA-A*02:01/MLA-001 monomers served as standards, covering the range of 15-500 ng/ml. Peptide-MHC monomers of the UV-exchange reaction were diluted 100 fold in blocking buffer. Samples were incubated for 1 h at 37° C., washed four times, incubated with 2 ug/ml HRP conjugated anti-β2m for 1 h at 37° C., washed again and detected with TMB solution that is stopped with […]. Absorption was measured at 450 nm. Candidate peptides that show a high exchange yield (preferably higher than 50%, most preferred higher than 75%) are generally preferred for a generation and production of antibodies or fragments thereof, and/or T cell receptors or fragments thereof, as they show sufficient avidity to the MHC molecules and prevent dissociation of the MHC complexes.
On the technique in general: ELISA stands for enzyme-linked immunosorbent assay.

For “156 (ALMDTDGSGKLNL; listed as Homo sapiens) [compound 156]”, the Peptide exchange entry is “+++ (>50 = +++)”.
For the substance “157 (HLFETISQA; listed as Homo sapiens) [compound 157]”, the Peptide exchange result is “+++ (>50 = +++)”.
The same measure for “158 (KLIPSIIVL; listed as Homo sapiens) [compound 158]”: “+++ (>50 = +++)”.
The value for “159 (TILATVPLV; listed as Homo sapiens) [compound 159]” was “++++ (>75% = ++++)”.
In the case of “160 (ALDDISESI; listed as Homo sapiens) [compound 160]”, the Peptide exchange entry was “++++ (>75% = ++++)”.
The value for “161 (GLCDSIITI; listed as Homo sapiens) [compound 161]” was “++++ (>75% = ++++)”; that for “162 (TLDGNPFLV; listed as Homo sapiens) [compound 162]” was “+++ (>50 = +++)”.
The same measure for “163 (RLMANPEALKI; listed as Homo sapiens) [compound 163]”: “+++ (>50 = +++)”; for “164 (ALFFQLVDV; listed as Homo sapiens) [compound 164]”: “++ (>20% = ++)”; for “165 (ALIEVLQPLI; listed as Homo sapiens) [compound 165]”: “++++ (>75% = ++++)”.
For “166 (SIIPPLFTV; listed as Homo sapiens) [compound 166]”, the Peptide exchange entry is listed as “++++ (>75% = ++++)”.
The value for “167 (KVLGDVIEV; listed as Homo sapiens) [compound 167]” was “++++ (>75% = ++++)”.
The same measure for “168 (KLLAATLLL; listed as Homo sapiens) [compound 168]”: “++++ (>75% = ++++)”; for “169 (TLLESIQHV; listed as Homo sapiens) [compound 169]”: “++++ (>75% = ++++)”.
On to “170 (KLKEAVEAI; listed as Homo sapiens) [compound 170]”, for which the Peptide exchange entry is “++ (>20% = ++)”.
Take “171 (KVSGVILSV; listed as Homo sapiens) [compound 171]”: the Peptide exchange entry was “++++ (>75% = ++++)”.
On to “172 (FLPAGIVAV; listed as Homo sapiens) [compound 172]”, for which the Peptide exchange result is “++++ (>75% = ++++)”.
The value for “173 (ALDDIIYRA; listed as Homo sapiens) [compound 173]” was “+++ (>50 = +++)”; that for “174 (TLLEGLTEL; listed as Homo sapiens) [compound 174]” was “+++ (>50 = +++)”; that for “175 (VLDSVDVRL; listed as Homo sapiens) [compound 175]” was “++++ (>75% = ++++)”.
Take “176 (TLYEQEIEV; listed as Homo sapiens) [compound 176]”: the Peptide exchange entry is on record as “++++ (>75% = ++++)”.
The value for “177 (ILWDTLLRL; listed as Homo sapiens) [compound 177]” was “++++ (>75% = ++++)”.
The same measure for “178 (FAYDGKDYIA; listed as Homo sapiens) [compound 178]”: “++++ (>75% = ++++)”; for “179 (ALDDTVLQV; listed as Homo sapiens) [compound 179]”: “+++ (>50 = +++)”.
For the substance “180 (KLAEALYIA; listed as Homo sapiens) [compound 180]”, the Peptide exchange result is given as “+++ (>50 = +++)”.
The value for “181 (GLIDLEANYL; listed as Homo sapiens) [compound 181]” was “++++ (>75% = ++++)”.
The same measure for “182 (SVALVIHNV; listed as Homo sapiens) [compound 182]”: “++++ (>75% = ++++)”; for “183 (FLDSLIYGA; listed as Homo sapiens) [compound 183]”: “++++ (>75% = ++++)”.
The value for “184 (VLFSSPPVILL; listed as Homo sapiens) [compound 184]” was “++++ (>75% = ++++)”; that for “185 (ILADATAKM; listed as Homo sapiens) [compound 185]” was “++++ (>75% = ++++)”.
Consider “186 (FLDHEMVFL; listed as Homo sapiens) [compound 186]”, for which the Peptide exchange result is on record as “++++ (>75% = ++++)”.
The value for “187 (SLPRPTPQA; listed as Homo sapiens) [compound 187]” was “+++ (>50 = +++)”; that for “188 (VVVDPIQSV; listed as Homo sapiens) [compound 188]” was “+++ (>50 = +++)”; that for “193 (ALDEPTTNL; listed as Homo sapiens) [compound 193]” was “+++ (>50 = +++)”.
The same measure for “194 (TLDDIMAAV; listed as Homo sapiens) [compound 194]”: “+++ (>50 = +++)”; for “195 (IAAGIFNDL; listed as Homo sapiens) [compound 195]”: “+ (>10% = +)”.
The value for “196 (ALEPIDITV; listed as Homo sapiens) [compound 196]” was “+++ (>50 = +++)”; that for “197 (ALDSGFNSV; listed as Homo sapiens) [compound 197]” was “++++ (>75% = ++++)”; that for “198 (EVVDKINQV; listed as Homo sapiens) [compound 198]” was “+ (>10% = +)”.
Take “199 (AIHTAILTL; listed as Homo sapiens) [compound 199]”: the Peptide exchange entry is given as “++ (>20% = ++)”.
The same measure for “200 (LLEEINHFL; listed as Homo sapiens) [compound 200]”: “+++ (>50 = +++)”; for “201 (SLIDRTIKM; listed as Homo sapiens) [compound 201]”: “+++ (>50 = +++)”.
The value for “202 (RVAFKINSV; listed as Homo sapiens) [compound 202]” was “+++ (>50 = +++)”; that for “203 (FLNEDISKL; listed as Homo sapiens) [compound 203]” was “+++ (>50 = +++)”; that for “204 (RMDEEFTKI; listed as Homo sapiens) [compound 204]” was “+++ (>50 = +++)”.
The same measure for “205 (SLKSKVLSV; listed as Homo sapiens) [compound 205]”: “++++ (>75% = ++++)”; for “206 (LLYEDIPDKV; listed as Homo sapiens) [compound 206]”: “+++ (>50 = +++)”; for “207 (VQIGDIVTV; listed as Homo sapiens) [compound 207]”: “++++ (>75% = ++++)”.
Consider “208 (YSDDIPHAL; listed as Homo sapiens) [compound 208]”, for which the Peptide exchange result is on record as “++ (>20% = ++)”.
For the substance “209 (SILDGLIHL; listed as Homo sapiens) [compound 209]”, the Peptide exchange result is “+++ (>50 = +++)”.
The value for “210 (LLPELRDWGV; listed as Homo sapiens) [compound 210]” was “+++ (>50 = +++)”; that for “212 (LLKDSIVQL; listed as Homo sapiens) [compound 212]” was “+++ (>50 = +++)”; that for “214 (VLMEMSYRL; listed as Homo sapiens) [compound 214]” was “+++ (>50 = +++)”.
